What all share (settings): both partners purified
The target of test [1] is T1, MalFGK2 ABC transporter (maltose transporter), His-tagged (UniProt P02916 1-514; P68183 1-296; P68187 1-371).
T1 construct: also called MalGFK2
As to the kind of experiment: SDS-PAGE densitometry of gel-filtered peptidiscs; peptidiscs made on-column, one more gel filtration to remove free NSPr; 15% SDS-PAGE, Coomassie fluorescence of the NSPr band against a standard curve of NSPr; triplicate gels. A general note: Size exclusion chromatography separates by hydrodynamic size, large species first.

In test [2] the target is Photosynthetic bacterial reaction center (BRC) from Rhodobacter sphaeroides, His-tagged (Rhodobacter sphaeroides, UniProt P0C0Y8 1-282; P0C0Y9 1-308; P0C0Y7 1-260). Described as above.
For test [3], the target named is T2, Colicin M, His-tagged (UniProt P05820 1-271).
T2 construct: colicin M; Construct as in Mills et al., 2014; also called ColM; source: E. coli BW25113, plasmid pMLD189, purified
T2 sequence: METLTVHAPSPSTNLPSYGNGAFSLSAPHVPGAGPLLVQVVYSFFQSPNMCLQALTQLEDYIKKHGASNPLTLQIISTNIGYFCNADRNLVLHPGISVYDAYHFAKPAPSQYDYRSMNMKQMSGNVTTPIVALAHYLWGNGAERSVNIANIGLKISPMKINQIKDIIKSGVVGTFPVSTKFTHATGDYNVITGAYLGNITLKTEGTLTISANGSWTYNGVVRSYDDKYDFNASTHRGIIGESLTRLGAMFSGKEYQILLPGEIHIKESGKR
As to the kind of experiment: native gel or EMSA; about 2 µg FhuA in peptidisc incubated with TonB23-329 (2 µg) or ColM (5 µg), with or without ferricrocin, 5 min at room temperature; CN-PAGE, Coomassie; free TonB and ColM do not migrate. For orientation: A gel shift assay detects complexes by their altered migration in electrophoresis.

Test [4] concerns the target T3, FhuA receptor, His-tagged (UniProt P06971 34-747).
T3 construct: also called FhuA transporter
T3 sequence (looked up): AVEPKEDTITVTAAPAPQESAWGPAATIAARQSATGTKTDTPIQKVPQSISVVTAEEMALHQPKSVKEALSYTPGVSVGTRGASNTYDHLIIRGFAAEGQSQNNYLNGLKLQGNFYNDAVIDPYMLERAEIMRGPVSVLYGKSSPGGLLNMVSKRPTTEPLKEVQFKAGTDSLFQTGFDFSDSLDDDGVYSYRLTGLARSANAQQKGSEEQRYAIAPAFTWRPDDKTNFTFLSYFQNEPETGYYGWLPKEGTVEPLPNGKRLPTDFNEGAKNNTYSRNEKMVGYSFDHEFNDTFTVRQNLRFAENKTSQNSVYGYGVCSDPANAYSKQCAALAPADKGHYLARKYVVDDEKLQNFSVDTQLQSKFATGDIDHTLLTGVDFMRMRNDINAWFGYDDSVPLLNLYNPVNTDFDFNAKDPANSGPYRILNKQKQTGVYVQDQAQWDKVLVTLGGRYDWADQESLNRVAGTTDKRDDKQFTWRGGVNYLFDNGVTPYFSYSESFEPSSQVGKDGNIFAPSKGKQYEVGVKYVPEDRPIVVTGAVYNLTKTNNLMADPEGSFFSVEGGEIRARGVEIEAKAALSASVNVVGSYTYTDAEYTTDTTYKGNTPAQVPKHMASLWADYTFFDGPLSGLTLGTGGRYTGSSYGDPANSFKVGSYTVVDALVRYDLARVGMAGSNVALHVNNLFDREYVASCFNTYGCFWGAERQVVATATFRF
As to the kind of experiment: streptavidin blot quantification of biotinylated peptide in gel-filtered peptidiscs; FhuA reconstituted with NSPrbio; western blot with streptavidin-Alexa 680, against a standard curve. A general note: A western blot detects proteins with antibodies after separation by electrophoresis.

No end group written: not given here.

T1 sequence (P02916 whole entry, chain 1 of 3): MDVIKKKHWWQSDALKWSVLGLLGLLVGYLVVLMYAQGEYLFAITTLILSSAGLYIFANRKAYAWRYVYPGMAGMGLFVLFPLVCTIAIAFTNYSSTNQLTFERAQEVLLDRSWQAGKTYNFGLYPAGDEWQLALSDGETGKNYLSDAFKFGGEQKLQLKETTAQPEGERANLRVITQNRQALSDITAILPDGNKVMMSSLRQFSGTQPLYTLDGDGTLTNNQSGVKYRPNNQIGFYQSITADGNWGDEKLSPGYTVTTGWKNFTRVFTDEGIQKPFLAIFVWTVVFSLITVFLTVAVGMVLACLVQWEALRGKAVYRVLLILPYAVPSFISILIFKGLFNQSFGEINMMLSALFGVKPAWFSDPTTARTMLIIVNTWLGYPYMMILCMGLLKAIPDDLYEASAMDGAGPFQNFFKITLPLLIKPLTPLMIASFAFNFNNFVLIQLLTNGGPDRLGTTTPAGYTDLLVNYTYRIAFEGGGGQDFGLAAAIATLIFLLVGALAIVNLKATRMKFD
T1 sequence (P68183 whole entry, chain 2 of 3): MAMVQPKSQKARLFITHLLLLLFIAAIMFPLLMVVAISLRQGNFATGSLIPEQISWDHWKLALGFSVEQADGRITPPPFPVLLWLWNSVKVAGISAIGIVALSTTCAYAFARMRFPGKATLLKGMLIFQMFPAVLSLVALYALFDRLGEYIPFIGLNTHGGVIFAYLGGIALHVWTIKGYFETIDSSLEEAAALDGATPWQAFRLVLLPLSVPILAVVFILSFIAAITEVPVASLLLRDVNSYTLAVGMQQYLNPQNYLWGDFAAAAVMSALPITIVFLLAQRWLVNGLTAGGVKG
T1 sequence (P68187 whole entry, chain 3 of 3): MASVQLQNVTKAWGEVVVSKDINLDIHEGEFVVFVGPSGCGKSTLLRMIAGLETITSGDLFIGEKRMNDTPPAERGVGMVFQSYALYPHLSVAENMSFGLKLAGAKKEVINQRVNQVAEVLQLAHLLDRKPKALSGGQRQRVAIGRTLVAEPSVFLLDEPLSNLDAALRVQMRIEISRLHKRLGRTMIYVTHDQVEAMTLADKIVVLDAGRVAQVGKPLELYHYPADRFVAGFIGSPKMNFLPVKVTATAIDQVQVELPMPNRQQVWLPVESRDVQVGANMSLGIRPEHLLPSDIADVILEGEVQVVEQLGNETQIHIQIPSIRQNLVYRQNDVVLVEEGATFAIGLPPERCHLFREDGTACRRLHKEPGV

B1: Peptide NSPr (reversed nanodisc scaffold peptide, peptidisc scaffold) (peptide)
peptide: FAEKFKEAVKDYFAKFWDPAAEKLKEAVKDYFAKLWD
notes: also called NSP (used loosely in some legends and methods); source: synthetic peptide; bought: A+ peptide Co. Ltd. and Genscript (purity >80%)
On to B1, for which the figures for the “stoichiometry N” value in test [1] and in test [2] were 10 NSPr/disc and 9 NSPr/disc, respectively.

B2: FhuA reconstituted in peptidisc (FhuA-NSPr) (complex)
chain: AVEPKEDTITVTAAPAPQESAWGPAATIAARQSATGTKTDTPIQKVPQSISVVTAEEMALHQPKSVKEALSYTPGVSVGTRGASNTYDHLIIRGFAAEGQSQNNYLNGLKLQGNFYNDAVIDPYMLERAEIMRGPVSVLYGKSSPGGLLNMVSKRPTTEPLKEVQFKAGTDSLFQTGFDFSDSLDDDGVYSYRLTGLARSANAQQKGSEEQRYAIAPAFTWRPDDKTNFTFLSYFQNEPETGYYGWLPKEGTVEPLPNGKRLPTDFNEGAKNNTYSRNEKMVGYSFDHEFNDTFTVRQNLRFAENKTSQNSVYGYGVCSDPANAYSKQCAALAPADKGHYLARKYVVDDEKLQNFSVDTQLQSKFATGDIDHTLLTGVDFMRMRNDINAWFGYDDSVPLLNLYNPVNTDFDFNAKDPANSGPYRILNKQKQTGVYVQDQAQWDKVLVTLGGRYDWADQESLNRVAGTTDKRDDKQFTWRGGVNYLFDNGVTPYFSYSESFEPSSQVGKDGNIFAPSKGKQYEVGVKYVPEDRPIVVTGAVYNLTKTNNLMADPEGSFFSVEGGEIRARGVEIEAKAALSASVNVVGSYTYTDAEYTTDTTYKGNTPAQVPKHMASLWADYTFFDGPLSGLTLGTGGRYTGSSYGDPANSFKVGSYTVVDALVRYDLARVGMAGSNVALHVNNLFDREYVASCFNTYGCFWGAERQVVATATFRF
peptide: FAEKFKEAVKDYFAKFWDPAAEKLKEAVKDYFAKLWD
notes: also called FhuA-peptidisc; FhuA peptidisc; copies: 1 + 10
For the molecule B2, the binding result in test [3] is given as “binds”.

B3: Peptide NSPrbio (NSPr labelled with a biotin group) (peptide)
peptide: FAEKFKEAVKDYFAKFWDPAAEKLKEAVKDYFAKLWD
modifications: also: biotin group, position not given here
notes: source: synthetic peptide; bought: KareBay
As for B3, the stoichiometry N (as a rule, a count of units in the complex or per binding partner) in test [4] is 10 NSPr/disc.

The record behind these values is PMC6093710, “The Peptidisc, a simple method for stabilizing membrane proteins in detergent-free solution” (eLife, 2018).
